Data set [1] deals with T1, pro-caspase-12 (caspase-12L, full-length precursor, 419 residues, 48 kDa).
T1 sequence: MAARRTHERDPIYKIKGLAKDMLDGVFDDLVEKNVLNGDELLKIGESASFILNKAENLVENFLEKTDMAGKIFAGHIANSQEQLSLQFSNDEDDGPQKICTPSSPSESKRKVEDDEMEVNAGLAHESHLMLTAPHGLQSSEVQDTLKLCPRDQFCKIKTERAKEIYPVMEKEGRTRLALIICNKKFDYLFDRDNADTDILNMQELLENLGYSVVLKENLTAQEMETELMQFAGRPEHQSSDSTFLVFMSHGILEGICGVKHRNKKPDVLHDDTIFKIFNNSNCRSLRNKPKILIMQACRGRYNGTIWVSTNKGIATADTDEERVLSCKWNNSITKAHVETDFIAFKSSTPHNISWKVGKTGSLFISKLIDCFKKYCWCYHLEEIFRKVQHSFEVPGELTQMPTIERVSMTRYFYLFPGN

Data set [2] has as its system Rat-1/bcl-2. Briefly: Effect of cell death suppressor bcl-2 on caspase-12 killing activity. It is filed as cell-based. The method, then:
FIGS. 5A-5B. Effect of cell death suppressors on the killing activity of caspase-12. […] Cell death was assayed as described in FIG. 4C. […] The data from transfection of the parental cell line, Rat-1 (FIG. 4C), are included in the figures for comparison. The lacZ construct was also used for transfection as a control.
To determine if expression of bcl-2 and crmA can inhibit apoptosis induced by casp-12 overexpression, casp-12L-lacZ fusion construct was transfected into stable cell lines of Rat-1 that overexpresses either bcl-2 or crmA (Miura, M., et al., Cell 75:653-660 (1993)). Cell death was assayed as described above (Example 3). […] The magnitude of the bcl-2 suppression against toxicity of casp-12 overexpression was about 10% (60% for Rat-1, 50% for Rat-1/bcl-2) which is much smaller than that observed for ICE and casp-2 (FIG. 5A; Wang, L., et al., Cell 78:739-750 (1994)).

Data set [3] has as its target T2, caspase-12Δ2 (Mus musculus, UniProt O08736).
T2 construct: made in house; host or cells: E. coli BL21(DE3) pLys
Briefly: Inhibition of cleavage of pro-caspase-12 by purified caspase-12Δ2. In kind it is biochemical. The conditions noted are these: preincubation 1 mM DTNB 25° C. 60 min or 2 mM iodoacetamide 0° C. 60 min. The protocol:
ICE, casp-2 and casp-3 were cloned into a pET-15b vector (Novagen) and their expression was induced in the presence of 0.2-0.3 mM IPTG (Wang, S., et a., J. Biol. Chem. 271:20580-20587 (1996); Cryns, V. L., et al., J. Biol. Chem. 271:31277-31282 (1996)). Bacterial lysates containing the ICE-like proteases were prepared as described (Wang, S., et al., J. Biol. Chem. 271:20580-20587 (1996); Cryns, V. L., et al., J. Biol. Chem. 271:31277-31282 (1996)). [^35S]-labeled proteins were prepared by in vitro transcription and translation using a TNT coupled reticulocyte lysate system (Promega) and [^35S]methionine (Amersham). Labeled proteins were incubated at 37° C. with purified caspase-12Δ2 or at 30° C. with E. coli lysates containing the caspase family members. The reaction mixture contained 25 mM Hepes (pH 7.5) with 5 mM EDTA, 5 mM dithiothreitol, 10% sucrose, 10 μg/ml leupeptin and 250 μM phenylmethylsulfonyl fluoride. Amount of proteins used for cleavage reaction were: 0.1 μg for partially purified caspase-12Δ2, 25-70 μg for E. coli lysate. […] Cleavage products were analyzed by either 10- or 15% SDS-polyacrylamide gel electrophoresis. […]

Data set [4] deals with T3, caspase-12Δ (Gly95-Asn419 of caspase-12L, with an artificial initiation codon), [35S]-labeled.
T3 sequence: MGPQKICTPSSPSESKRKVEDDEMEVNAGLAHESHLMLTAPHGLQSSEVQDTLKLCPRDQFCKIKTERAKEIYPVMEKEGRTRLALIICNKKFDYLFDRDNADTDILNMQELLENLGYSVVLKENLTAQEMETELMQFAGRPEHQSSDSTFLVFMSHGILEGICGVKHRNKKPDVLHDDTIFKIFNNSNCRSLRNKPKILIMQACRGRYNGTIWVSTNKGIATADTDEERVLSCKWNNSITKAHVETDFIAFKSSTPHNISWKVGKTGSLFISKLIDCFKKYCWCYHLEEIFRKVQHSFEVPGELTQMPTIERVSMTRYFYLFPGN

For data set [5], the system named is Rat-1 cells. Briefly: Cell death induced by transient overexpression of lacZ fusion constructs, X-gal staining. In kind it is cell-based. The conditions noted are these: lacZ fusion construct, 24 hr after transfection. An excerpt: FIGS. 4A-4C. Cell death induced by overexpression of caspase-12. […] The round cells expressing the casp-12L-lacZ fusion proteins show condensed and fragmented nuclei. […] The data shown are the percentage of round blue cells among total number of blue cells counted. In each transfection, over 200 blue cells were randomly chosen and counted. The data of Rat-1 cells collected from at least three independent experiments. The constructs used were: casp-12L-lacZ, casp-12S-lacZ, casp-12Δ-lacZ, ICE-lacZ, lacZ. Rat embryonic fibroblast cells (REF) were also transfected with either casp-12L-lacZ or lacZ.
To examine if expression of caspase-12 induces apoptosis, a transient expression system was used to overexpress caspase-12 in mammalian cells. […] Transfected cells are easily detected by staining with X-gal because of the β-galactosidase activity of lacZ. Expression constructs of casp-12L and casp-12S fused with lacZ gene in pcDNA3 vector, which contains the cytomegalovirus (CMV) promoter, were generated. These expression constructs were introduced into Rat-1 cells by transfection, and the expression of the genes were examined 24 hr after transfection using X-gal reaction.
Rat-1, rat embryonic fibroblast cells, NG108-15, HeLa and COS-1 were maintained in culture at 37° C. with 5% CO2 in Dulbecco's modified Eagle's medium containing 10% (v/v) fetal bovine serum (BioWhittaker) and 50 units/ml penicillin and 50 μg/ml streptomycin (Sigma). The day before transfection, cells were seeded at a density of 1.3×10^4 cells/cm^2. Expression constructs were transferred to cells with either calcium phosphate or lipofectamine (GIBCO BRL) as previously described (Miura, M., et al., Cell 75:653-660 (1993); Kumar, S., et al., Genes and Development 8:1613-1626 (1994); Wang, L., et al., Cell 78:739-750 (1994)). The expression of chimeric genes in cells was detected by staining of cells with 5-bromo-4-chloro-3-indolyl β-D-galactoside (X-gal) as previously described (Miura, M., et al., Cell 75:653-660 (1993); Kumar, S., et al., Genes and Development 8:1613-1626 (1994); Wang, L., et al., Cell 78:739-750 (1994)). Immunostaining of transfected cells was done as previously described using mouse monoclonal anti-lacZ antibody (Miura, M., et al., Cell 75:653-660 (1993); Kumar, S., et al., Genes and Development 8:1613-1626 (1994); Wang, L., et al., Cell 78:739-750 (1994)).

For the molecule “caspase-2 (E. coli lysate, expressed from pET-15b)”, in data set [1], the “in vitro cleavage of [35S]-labeled caspase-12 precursor by E. coli lysate containing the caspase” value is recorded as “Cleavage of pro-caspase-12 by caspase-2 generated a fragment of about 40 kDa at a lower cleavage efficiency, compared to caspase-3 digestion”.

Turning to “Bcl-2: mammalian cell death suppressor, homolog of C. elegans ced-9”, in data set [2] (60% for Rat-1 versus 50% for Rat-1/bcl-2), the “magnitude of bcl-2 suppression against toxicity of casp-12 overexpression” value is “about 10%”. For the same molecule, the “inhibition of cell death induced by overexpression of casp-12” value in data set [2] (Rat-1/bcl-2, FIG. 5A) is given as “only very weakly inhibited”.

Take `O=C(O)c1cc(SSc2ccc([N+](=O)[O-])c(C(=O)O)c2)ccc1[N+](=O)[O-]` [5,5′-dithio-bis(2-nitrobenzoic acid)]: in data set [3], the “inhibition of proteolytic activity of caspase-12Δ2 by pretreatment with thiol reagent” value was “completely inhibited”.

For “caspase-3 (E. coli lysate, expressed from pET-15b)”, the “in vitro cleavage of the [35S]-labeled truncated form” value in data set [4] was “Caspase-3 treatment of the truncated form did not produce any smaller fragments”. Moreover, in data set [1], the “in vitro cleavage of [35S]-labeled caspase-12 precursor by E. coli lysate containing the caspase” value was “caspase-2 and caspase-3 can cleave pro-caspase-12 protein, generating smaller fragments of about 40 kDa”.

As to `NC(=O)CI` [iodoacetamide], in data set [3], the “inhibition of proteolytic activity of caspase-12Δ2 by pretreatment with thiol reagent” value is reported as “completely inhibited”.

B1: caspase-12Δ: truncated caspase-12, amino acid residues 95-419 of SEQ ID NO:2 (protein)
chain: GPQKICTPSSPSESKRKVEDDEMEVNAGLAHESHLMLTAPHGLQSSEVQDTLKLCPRDQFCKIKTERAKEIYPVMEKEGRTRLALIICNKKFDYLFDRDNADTDILNMQELLENLGYSVVLKENLTAQEMETELMQFAGRPEHQSSDSTFLVFMSHGILEGICGVKHRNKKPDVLHDDTIFKIFNNSNCRSLRNKPKILIMQACRGRYNGTIWVSTNKGIATADTDEERVLSCKWNNSITKAHVETDFIAFKSSTPHNISWKVGKTGSLFISKLIDCFKKYCWCYHLEEIFRKVQHSFEVPGELTQMPTIERVSMTRYFYLFPGN
modifications: lacZ fusion
Take B1: the “percentage of cell death (round blue cells among total blue cells)” value in data set [5] turned out to be 60%.

B2: caspase-12S: alternatively spliced short form of caspase-12, 349 amino acid residues (SEQ ID NO:14) (protein)
chain: MAARRTHERDPIYKIKEFSNDEDDGPQKICTPSSPSESKRKVEDDEMEVNAGLAHESHLMLTAPHGLQSSEVQDTLKLCPRDQFCKIKTERAKEIYPVMEKEGRTRLALIICNKKFDYLFDRDNADTDILNMQELLENLGYSVVLKENLTAQEMETELMQFAGRPEHQSSDSTFLVFMSHGILEGICGVKHRNKKPDVLHDDTIFKIFNNSNCRSLRNKPKILIMQACRGRYNGTIWVSTNKGIATADTDEERVLSCKWNNSITKAHVETDFIAFKSSTPHNISWKVGKTGSLFISKLIDCFKKYCWCYHLEEIFRKVQHSFEVPGELTQMPTIERVSMTRYFYLFPGN
modifications: lacZ fusion
With B2, the “percentage of cell death (round blue cells among total blue cells)” value in data set [5] is given as “about 60%”.

Source of the values: patent publication US6642368B1, “Programmed cell death and caspase-12” (The General Hospital Corporation, priority 1998, dated 2003).
